In patent US20230265208A1:

Legend:
[1] = biological target: MUC1 on HCT116/MUC1 cells (human) (UniProt P15941); experiment: flow cytometry on HCT116-MUC1 cells, 5 µg isotype control, 60 min on ice
[2] = biological target: MUC1 on HCT116/MUC1 cells (human) (UniProt P15941); experiment: flow cytometry titration on HCT116/MUC1 cells; isotype control

MUC1 on HCT116/MUC1 cells (human), sequence (P15941 24-1255): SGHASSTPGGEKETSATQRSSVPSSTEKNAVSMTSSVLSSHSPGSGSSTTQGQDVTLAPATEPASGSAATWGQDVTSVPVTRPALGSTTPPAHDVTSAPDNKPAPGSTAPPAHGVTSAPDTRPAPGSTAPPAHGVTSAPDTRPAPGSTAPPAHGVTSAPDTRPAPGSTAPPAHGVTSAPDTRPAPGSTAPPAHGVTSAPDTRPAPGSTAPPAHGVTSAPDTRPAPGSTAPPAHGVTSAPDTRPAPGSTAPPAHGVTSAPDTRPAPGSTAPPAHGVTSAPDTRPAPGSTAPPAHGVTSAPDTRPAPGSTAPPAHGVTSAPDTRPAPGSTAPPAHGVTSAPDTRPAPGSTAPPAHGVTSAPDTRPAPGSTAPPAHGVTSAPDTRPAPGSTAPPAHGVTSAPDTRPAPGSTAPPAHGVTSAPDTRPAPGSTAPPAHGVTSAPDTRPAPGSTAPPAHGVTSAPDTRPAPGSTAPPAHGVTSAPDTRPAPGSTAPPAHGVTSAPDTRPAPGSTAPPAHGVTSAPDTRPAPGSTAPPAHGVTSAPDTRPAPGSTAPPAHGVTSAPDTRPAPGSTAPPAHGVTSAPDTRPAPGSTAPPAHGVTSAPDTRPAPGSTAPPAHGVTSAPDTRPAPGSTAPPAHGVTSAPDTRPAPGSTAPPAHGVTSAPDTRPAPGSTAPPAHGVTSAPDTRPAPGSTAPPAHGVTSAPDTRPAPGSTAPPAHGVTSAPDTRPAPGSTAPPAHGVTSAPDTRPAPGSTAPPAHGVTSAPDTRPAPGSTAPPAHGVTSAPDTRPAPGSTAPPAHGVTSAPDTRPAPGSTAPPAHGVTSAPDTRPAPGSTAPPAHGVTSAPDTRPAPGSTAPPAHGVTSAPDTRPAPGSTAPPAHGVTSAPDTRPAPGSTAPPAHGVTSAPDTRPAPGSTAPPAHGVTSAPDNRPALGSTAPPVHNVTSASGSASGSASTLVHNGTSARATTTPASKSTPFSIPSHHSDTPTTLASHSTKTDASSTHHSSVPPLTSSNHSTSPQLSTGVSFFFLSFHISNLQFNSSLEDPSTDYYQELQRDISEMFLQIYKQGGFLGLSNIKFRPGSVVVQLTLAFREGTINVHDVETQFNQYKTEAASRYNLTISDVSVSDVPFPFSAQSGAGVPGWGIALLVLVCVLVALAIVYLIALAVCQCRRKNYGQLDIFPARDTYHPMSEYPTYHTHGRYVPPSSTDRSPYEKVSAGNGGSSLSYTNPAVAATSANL

Substance	number over the gate bar (share of cells in the positive gate) [1]	EC50 [2] [nM]
Control (antibody)	0.6	
Human IgG (antibody)		0.292
